The series is described as follows: label from the status in PepcDB records.
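Also: failed if final PepcDB status was selected cloned or expressed and not failed if soluble or beyond.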

As to “MDVEPGKFYKGVVTRIEKYGAFINLNEQVRGLLRPRDMISLRLENLNVGDEIIVQAIDVRPEKREIDFKYIPLTTYDLVKYEKEVPLSQIKDISQNLEHHHHHH”, the protein production result is given as “not failed”.

Regarding “MDVKTAAALHRLRLISLPEAISFPILLVCSVLKRTTEFDAVFPMGLIHGLLFTFYVIFWADAWNRAKWSKKKAAGYFLLAIPPFGGLFAERKLKREAEDAVIASRARREGTVNA”, the protein production entry was “failed”.

Take “MDVTIERVNDFDGYNWLPLLAKSSQEGFQLVERMLRNRREESFQEDGEAMFVALSTTNQVLACGGYMKQSGQARTGRIRHVYVLPEARSHGIGTALLEKIMSEAFLTYDRLVLYSEQADPFYQGLGFQLVSGEKITHTLDKTAFADSNR”: the protein production entry is listed as “not failed”.

On to “MDVVDSLLVNGSNITPPCELGLENETLFCLDQPRPSKEWQPAVQILLYSLIFLLSVLGNTLVITVLIRNKRMRTVTNIFLLSLAVSDLMLCLFCMPFNLIPNLLKDFIFGSAVCKTTTYFMGTSVSVSTFNLVAISLERYGAICKPLQSRVWQTKSHALKVIAATWCLSFTIMTPYPIYSNLVPFTKNNNQTANMCRFLLPNDVMQQSWHTFLLLILFLIPGIVMMVAYGLISLELYQGIKFEASQKKSAKERKPSTTSSGKYEDSDGCYLQKTRPPRKLELRQLSTGSSSRANRIRSNSSAANLMAKKRVIRMLIVIVVLFFLCWMPIFSANAWRAYDTASAERRLSGTPISFILLLSYTSSCVNPIIYCFMNKRFRLGFMATFPCCPNPGPPGARGEVGEEEEGGTTGASLSRFSYSHMSASVPPQ”, for which the protein production result was “failed”.

In the case of “MDWFSWLSRTNLEASLIYEYGLSFSNNELEYEDIAYFNHEFLQSMGISIAKHRLEILKLARRDRKPSPLTARSIFRVLIAIKKTGKCFSEHVRAWIRREESSRALVVVSRSTSSSGNGRWKSARKKRLVMPSNGNGVKEERLLLTNGTPCRLDSFSNPKVSSGYEDDDNHWGNKDVEEKIKWDSMFQNLKPT”, the protein production entry is given as “failed”.

As to “MDWGTELWDQFEVLERHTQWGLDLLDRYVKFVKERTEVEQAYAKQLRSLVKKYLPKRPAKDDPESKFSQQQSFVQILQEVNDFAGQRELVAENLSVRVCLELTKYSQEMKQERKMHFQEGRRAQQQLENGFKQLENSKRKFERDCREAEKAAQTAERLDQDINATKADVEKAKQQAHLRSHMAEESKNEYAAQLQRFNRDQAHFYFSQMPQIFDKLQDMDERRATRLGAGYGLLSEAELEVVPIIAKCLEGMKVAANAVDPKNDSHVLIELHKSGFARPGDVEFEDFSQPMNRAPSDSSLGTPSDGRPELRGPGRSRTKRWPFGKKNKTVVTEDFSHLPPEQQRKRLQQQLEERSRELQKEVGQREALKKMKDVYEKTPQMGDSASLEPQIAETLSNIERLKLEVQKYEAWLAEAESRVLSNRGDSLSRHARPPDPPASAPPDSSSNSASQDTKESSEEPPSEESQDTPIYTEFDEDFEEEPTSPIGHCVAIYHFEGSSEGTISMAEGEDLSLMEEDKGDGWTRVRRKEGGEGYVPTSYLRVTLN”, the protein production result is listed as “not failed”.

As for “MDWTMISGSRDESLHAARDYWRRLNESECFDIEGIEAPPGAIALIPYDCQLPNSFHPLPLWVKLYASAGLHRFNMLEVLVNERSVGKLNIIVPIARPKGVTTNERFIPCDCFSVDDKLPQWPSHDSFNDRKRFYSVKESELQNNDWINLYLELVLCAIQKVRISDSDLSKLKIVKAVIETKEDMVPPNERLNAKTAVVYITFKGLANARIAAGEHYERKAIIRRIFNEHTGHLSLLGDLIGEKKFVNIDPVTYFNSPAYLEDITHELPPESPWMDILAGTGSMDQID”, the protein production entry is on record as “failed”.

As for “MDYPDLAPRARSWAPHLLGVLRIVAAFLFLQFGTAKLFAFPGPVMPGGGTAPLASLAGIAGAIEAFGGALLLVGLFSRPVAFLLSGEMAVAYFYGHAPQGFWPVLNQGTPAALFAFVFLYLAAAGPGRFSLDGLRGKDAP”, the protein production entry is recorded as “failed”.

With “MDYSQFLYMKEELSLIAVILILFVVDLLTCPDQKGATPKVNVRSLTLPAVILMTLHTVINLFPGTPAEAFGGMYQYTPMQTIIKAVLNVGTIIVLLMAHEWLKREDTRIKQGEFYVLTLSTLLGMYFMISAGHFLMFFIGLEMASIPMAALVAFDKYRHHSAEAGAKYILTALFSSALLLFGLSMIYGTSGTLYFNDLPGHITGNMLQIMAFVFFFAGMGFKISLVPFHLWTADVYEGAPTAVTSYLSVISKGSAAFVLMTILMKVFAPMVAQWQEVLFWVTIASITIANLFAIRQQNLKRFMAFSAISQAGYIMLGVIGGSEMGMTALVYYVLVYLAANLGVFAVISIVEQRSNKVEIDDYNGLYKTNPKLAFIMTLALFSLAGIPPFAGFFSKFFIFMAAFNSGFHLLVFIALINTVVSLYYYLLIVKAMYINPNEEPIPTFRSDNYTKVSLVLCTLGIIALGIASCIYQGIDKFSFGMGM”, the protein production entry is on record as “failed”.

Turning to “MEADRGRNNKVRCAVVDTNVLMYVYLNKADVVGQLREFGFSRFLITASVKRELEKLEMSLRGKEKVAARFALKLLEHFEVVETESEGDPSLIEAAEKYGCILITNDKELKRKAKQRGIPVGYLKEDKRVFVELLD”, the protein production result is recorded as “not failed”.

As for “MEALAELIKRKVPNEGLIIEVGVGFYLKVAKKLKEYGFNVVVVDINQEAVKNAIKERIPGFVDDVFNPNLKIYLKARAIYSIRPNPEIMMALLTLAKKVKVPLYIVPLSGDVPPREMKLINYKGISVYVWEP”, the protein production result is reported as “failed”.

As to “MEALGPGGDRASPASSTSSLDLWHLSMRADSAYSSFSAASGGPEPRTQSPGTDLLPYLDWDYVRVVWGGPGPAPPDAALCTSPRPRPAVAARSGPQPTEVPGTPGPLNRQATPLLYALAAEAEAAAQAAEPPSPPASRAAYRQRLQGAQRRVLRETSFQRKELRMSLPARLRPTVPARPPATHPRSASLSHPGGEGEPARSRAPAPGTAGRGPLANQQRKWCFSEPGKLDRVGRGGGPARECLGEACSSSGLPGPEPLEFQHPALAKFEDHEVGWLPETQPQGSMNLDSGSLKLGDAFRPASRSRSASGEVLGSWGGSGGTIPIVQAVPQGAETPRPLFQTKLSRFLPQKEAAVMYPAELPQSSPADSEQRVSETCIVPAWLPSLPDEVFLEEAPLVRMRSPPDPHASQGPPASVHASDQPYGTGLGQRTGQVTVPTEYPLHECPGTAGADDCWQGVNGSVGISRPTSHTPTGTANDNIPTIDPTGLTTNPPTAAESDLLKPVPADALGLSGNDTPGPSHNTALARGTGQPGSRPTWPSQCLEELVQELARLDPSLCDPLASQPSPEPPLGLLDGLIPLAEVRAAMRPACGEAGEEAASTFEPGSYQFSFTQLLPAPREETRLENPATHPVLDQPCGQGLPAPNNSIQGKKVELAARLQKMLQDLHTEQERLQGEAQAWARRQAALEAAVRQACAPQELERFSRFMADLERVLGLLLLLGSRLARVRRALARAASDSDPDEQASLLQRLRLLQRQEEDAKELKEHVARRERAVREVLVRALPVEELRVYCALLAGKAAVLAQQRNLDERIRLLQDQLDAIRDDLGHHAPSPSPARPPGTCPPVQPPFPLLLT”, the protein production result was “failed”.

As to “MEALVVVHKVASEGGRRPKTTVSDESGSHSREKGKSFQVKDSPENNYATGKVDSLERSHFSSSYNQERRQSEEQRR”, the protein production entry is recorded as “failed”.

In the case of “MEASRFIEIGLLTRPHGLKGEVCVDYYADSPFLLEGTVYLKAGRAAPRPVKVQSMRMHKGRPLVIFEGVNDRTAAELLRGHVMLVPEDTLPELDEDEVYLFELEGISVVIDESGEHLGVIERIDTDAYQEIWVIRTPQGKEVLFPAAAPFVLDIDLDSRTARIAPPPGLLDIYLSD”, the protein production result is “failed”.

Regarding “MEATGLITEYNPFHNGHLYHLKKAQELTKADVTIVLMSGNWVQRGLPAITDKWKRAQAAIDAGADLVFELPFYYAVQAGEIFAQGAVRLLSDLQVSSIICGSEHADIDFINLAAHEPDISGNSNFDKKNRTFASNYAAALEEKTGFYLENANDILAFSYAKAILNQNLTEKIKLRTISRVSADYHDQFLNDGEIASATAIRKALSEGQNVDSYTP”, the protein production entry is reported as “failed”.
